{
  "source": "paper PMC4136701",
  "about": "“A Conserved Cysteine Residue of Bacillus subtilis SpoIIIJ Is Important for Endospore Development” (PLoS ONE, 2014)",
  "molecules": {"B1": {"name": "SpoIIIJ-His6 (natural protein, Bacillus subtilis, UniProt Q01625 23-261, looked up)", "chain": "CSSVKEPITADSPHFWDKYVVYPLSELITYVAKLTGDNYGLSIILVTILIRLLILPLMIKQLRSSKAMQALQPEMQKLKEKYSSKDQKTQQKLQQETMALFQKHGVNPLAGCFPILIQMPILIGFYHAIMRTQAISEHSFLWFDLGEKDPYYILPIVAGVATFVQQKLMMAGNAQQNPQMAMMLWIMPIMIIVFAINFPAALSLYWVVGNLFMIAQTFLIKGPDIKKNPEPQKAGGKKK", "modifications": "Cys23 of the lipoprotein-type signal peptide is modified during insertion of the protein into the membrane", "notes": "SpoIIIJ, membrane protein insertase of the YidC/Oxa1/Alb3 family, Bacillus subtilis; calculated mass 27 kDa; Purified protein is a mixture of monomers and dimers; it also holds proteolytic products starting at L122; also called full-length mature SpoIIIJ-His6; SpoIIIJ^wt-His6; source: E. coli C43(DE3) bearing pMS266, membrane fraction solubilised with 2% DDM, purified (Ni2+-NTA); not shown: His6, …"}},
  "key": {"[1]": {"target": "SpoIIIJ^C134A-His6 (Bacillus subtilis) (UniProt Q01625)", "assay": "SEC; Superose 12 HR 10/30; 20 mM Tris-HCl pH 7.6, 10% glycerol, 0.5 M NaCl, 0.1% DDM, 100 mM imidazole; fractions immunoblotted; peak areas estimated with ImageJ"}, "[2]": {"target": "B1", "assay": "SDS-PAGE with or without reducing agent; purified protein in loading buffer with (100 mM) or without DTT; Coomassie staining or immunoblot with anti-His6; bands a and b cut out and run again", "details": "both partners purified"}, "[3]": {"target": "the molecule itself", "assay": "SDS-PAGE with or without reducing agent; purified protein in loading buffer with (100 mM) or without DTT; Coomassie staining or immunoblot with anti-His6; bands a and b cut out and run again"}, "[4]": {"target": "the molecule itself", "assay": "SEC; Superose 12 HR 10/30; 20 mM Tris-HCl pH 7.6, 10% glycerol, 0.5 M NaCl, 0.1% DDM, 100 mM imidazole; fractions immunoblotted; peak areas estimated with ImageJ"}},
  "data": [
    {"molecule": "SpoIIIJ^C134A-His6 (from UniProt Q01625 23-261) (natural protein)", "values": [
      {"measurement": "ratio of peak areas B (monomer size) to A (dimer size) (peak B : peak A)", "setting": "[1]", "value": 0.4}
    ]},
    {"molecule": "truncated SpoIIIJ-His6 starting at L122 (fragment \"c\", lacking TM1) (domain or fragment, Bacillus subtilis, UniProt Q01625 122-261, looked up, SpoIIIJ, Bacillus subtilis; about 16 kDa product of cleavage at L122 in the cytoplasmic loop between TM1 and TM2: the rest of that loop to the end of the protein (includes TM2 with Cys134); Two species of about 15 kDa both start at L122; The cause of their different mobility is not known; also called band c; truncated SpoIIIJ monomer (lacking TM1); source: E. coli C43(DE3), proteolytic product …) LFQKHGVNPLAGCFPILIQMPILIGFYHAIMRTQAISEHSFLWFDLGEKDPYYILPIVAGVATFVQQKLMMAGNAQQNPQMAMMLWIMPIMIIVFAINFPAALSLYWVVGNLFMIAQTFLIKGPDIKKNPEPQKAGGKKK", "values": [
      {"measurement": "binding result", "setting": "[2]", "value": "binds"}
    ]},
    {"molecule": "B1", "values": [
      {"measurement": "stoichiometry N", "setting": "[3]", "value": 2},
      {"measurement": "ratio of peak areas B (monomer size) to A (dimer size)", "setting": "[4]", "value": "0.111 peak B : peak A"},
      {"measurement": "stoichiometry N", "setting": "[4]", "value": "~2"}
    ]}
  ]
}
